Measured values as given in US12679878B2, “CRF2 receptor agonists and their use in therapy” (SANOFI, priority 2020, dated 2026).
Starred links: 1 amine or outer side, 2 acyl side, 3 side chain; linkers in the order of their positions; H or OH if unused. Non-standard residues stand in square brackets, D forms with d. Groups on a side chain read outwards from the residue. No end group written: not given here. *: point of attachment. C18 diacid = O=C(O)CCCCCCCCCCCCCCCCC(=O)*; γGlu = O=C(O)[C@H](CCC(=O)[*:2])N[*:1]; AEEA = NCCOCCOCC(=O)O; Aib = CC(C)(N)C(=O)O

Biological target: T1, CRF1R receptor (anti-target) (UniProt P34998 24-415, limits assumed)
T1 sequence (looked up): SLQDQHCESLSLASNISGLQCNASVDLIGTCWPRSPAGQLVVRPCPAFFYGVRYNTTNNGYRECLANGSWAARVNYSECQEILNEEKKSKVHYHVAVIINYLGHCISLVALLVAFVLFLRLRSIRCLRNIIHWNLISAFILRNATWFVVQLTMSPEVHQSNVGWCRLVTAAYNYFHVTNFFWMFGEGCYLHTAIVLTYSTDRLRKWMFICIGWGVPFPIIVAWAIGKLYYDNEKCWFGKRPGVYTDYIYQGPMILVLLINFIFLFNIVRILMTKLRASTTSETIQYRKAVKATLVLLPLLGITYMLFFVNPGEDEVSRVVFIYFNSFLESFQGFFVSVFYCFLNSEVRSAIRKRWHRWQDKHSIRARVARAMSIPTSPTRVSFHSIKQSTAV
Assay: cell-based or functional assay

B1: peptide of SEQ ID NO: 122 (peptide)
peptide: IVLSLDVPIKLK([AEEA-AEEA-γGlu-C18 diacid])QILLKQERQKKQRQQAEKNKQILAQV-NH2
modifications: N-terminus assumed
SMILES: CC[C@H](C)[C@H](N)C(=O)N[C@H](C(=O)N[C@@H](CC(C)C)C(=O)N[C@@H](CO)C(=O)N[C@@H](CC(C)C)C(=O)N[C@@H](CC(=O)O)C(=O)N[C@H](C(=O)N1CCC[C@H]1C(=O)N[C@H](C(=O)N[C@@H](CCCCN)C(=O)N[C@@H](CC(C)C)C(=O)N[C@@H](CCCCNC(=O)COCCOCCNC(=O)COCCOCCNC(=O)CC[C@H](NC(=O)CCCCCCCCCCCCCCCCC(=O)O)C(=O)O)C(=O)N[C@@H](CCC(N)=O)C(=O)N[C@H](C(=O)N[C@@H](CC(C)C)C(=O)N[C@@H](CC(C)C)C(=O)N[C@@H](CCCCN)C(=O)N[C@@H](CCC(N)=O)C(=O)N[C@@H](CCC(=O)O)C(=O)N[C@@H](CCCNC(=N)N)C(=O)N[C@@H](CCC(N)=O)C(=O)N[C@@H](CCCCN)C(=O)N[C@@H](CCCCN)C(=O)N[C@@H](CCC(N)=O)C(=O)N[C@@H](CCCNC(=N)N)C(=O)N[C@@H](CCC(N)=O)C(=O)N[C@@H](CCC(N)=O)C(=O)N[C@@H](C)C(=O)N[C@@H](CCC(=O)O)C(=O)N[C@@H](CCCCN)C(=O)N[C@@H](CC(N)=O)C(=O)N[C@@H](CCCCN)C(=O)N[C@@H](CCC(N)=O)C(=O)N[C@H](C(=O)N[C@@H](CC(C)C)C(=O)N[C@@H](C)C(=O)N[C@@H](CCC(N)=O)C(=O)N[C@H](C(N)=O)C(C)C)[C@@H](C)CC)[C@@H](C)CC)[C@@H](C)CC)C(C)C)C(C)C
EC50 [nM] 0% HSA (cAMP, HTRF): > 100 nM
Emax (%) (100% = Sauvagine at 100 nM): 6.9%

B2: peptide of SEQ ID NO: 118 (peptide)
peptide: IVLSLD[dV]PIKLK([AEEA-AEEA-γGlu-C18 diacid])QILLKQERQK[Aib]QRQKAEKNKQILAQV-NH2
modifications: N-terminus assumed
SMILES: CC[C@H](C)[C@H](N)C(=O)N[C@H](C(=O)N[C@@H](CC(C)C)C(=O)N[C@@H](CO)C(=O)N[C@@H](CC(C)C)C(=O)N[C@@H](CC(=O)O)C(=O)N[C@@H](C(=O)N1CCC[C@H]1C(=O)N[C@H](C(=O)N[C@@H](CCCCN)C(=O)N[C@@H](CC(C)C)C(=O)N[C@@H](CCCCNC(=O)COCCOCCNC(=O)COCCOCCNC(=O)CC[C@H](NC(=O)CCCCCCCCCCCCCCCCC(=O)O)C(=O)O)C(=O)N[C@@H](CCC(N)=O)C(=O)N[C@H](C(=O)N[C@@H](CC(C)C)C(=O)N[C@@H](CC(C)C)C(=O)N[C@@H](CCCCN)C(=O)N[C@@H](CCC(N)=O)C(=O)N[C@@H](CCC(=O)O)C(=O)N[C@@H](CCCNC(=N)N)C(=O)N[C@@H](CCC(N)=O)C(=O)N[C@@H](CCCCN)C(=O)NC(C)(C)C(=O)N[C@@H](CCC(N)=O)C(=O)N[C@@H](CCCNC(=N)N)C(=O)N[C@@H](CCC(N)=O)C(=O)N[C@@H](CCCCN)C(=O)N[C@@H](C)C(=O)N[C@@H](CCC(=O)O)C(=O)N[C@@H](CCCCN)C(=O)N[C@@H](CC(N)=O)C(=O)N[C@@H](CCCCN)C(=O)N[C@@H](CCC(N)=O)C(=O)N[C@H](C(=O)N[C@@H](CC(C)C)C(=O)N[C@@H](C)C(=O)N[C@@H](CCC(N)=O)C(=O)N[C@H](C(N)=O)C(C)C)[C@@H](C)CC)[C@@H](C)CC)[C@@H](C)CC)C(C)C)C(C)C
EC50 [nM] 0% HSA (cAMP, HTRF): > 100 nM
Emax (%) (100% = Sauvagine at 100 nM): 1.5%

B3: peptide of SEQ ID NO: 119 (peptide)
peptide: IVLSLDVPIKLK([AEEA-AEEA-γGlu-C18 diacid])QILLKQERQKK[Aib]RQKAEKNKQILAQV-NH2
modifications: N-terminus assumed
SMILES: CC[C@H](C)[C@H](N)C(=O)N[C@H](C(=O)N[C@@H](CC(C)C)C(=O)N[C@@H](CO)C(=O)N[C@@H](CC(C)C)C(=O)N[C@@H](CC(=O)O)C(=O)N[C@H](C(=O)N1CCC[C@H]1C(=O)N[C@H](C(=O)N[C@@H](CCCCN)C(=O)N[C@@H](CC(C)C)C(=O)N[C@@H](CCCCNC(=O)COCCOCCNC(=O)COCCOCCNC(=O)CC[C@H](NC(=O)CCCCCCCCCCCCCCCCC(=O)O)C(=O)O)C(=O)N[C@@H](CCC(N)=O)C(=O)N[C@H](C(=O)N[C@@H](CC(C)C)C(=O)N[C@@H](CC(C)C)C(=O)N[C@@H](CCCCN)C(=O)N[C@@H](CCC(N)=O)C(=O)N[C@@H](CCC(=O)O)C(=O)N[C@@H](CCCNC(=N)N)C(=O)N[C@@H](CCC(N)=O)C(=O)N[C@@H](CCCCN)C(=O)N[C@@H](CCCCN)C(=O)NC(C)(C)C(=O)N[C@@H](CCCNC(=N)N)C(=O)N[C@@H](CCC(N)=O)C(=O)N[C@@H](CCCCN)C(=O)N[C@@H](C)C(=O)N[C@@H](CCC(=O)O)C(=O)N[C@@H](CCCCN)C(=O)N[C@@H](CC(N)=O)C(=O)N[C@@H](CCCCN)C(=O)N[C@@H](CCC(N)=O)C(=O)N[C@H](C(=O)N[C@@H](CC(C)C)C(=O)N[C@@H](C)C(=O)N[C@@H](CCC(N)=O)C(=O)N[C@H](C(N)=O)C(C)C)[C@@H](C)CC)[C@@H](C)CC)[C@@H](C)CC)C(C)C)C(C)C
EC50 [nM] 0% HSA (cAMP, HTRF): > 100 nM
Emax (%) (100% = Sauvagine at 100 nM): 0.4%

B4: peptide of SEQ ID NO: 121 (peptide)
peptide: IVLSLDVPIKLK([AEEA-AEEA-γGlu-C18 diacid])QILLKQERQKKQREKAEKNKQILAQV-NH2
modifications: N-terminus assumed
SMILES: CC[C@H](C)[C@H](N)C(=O)N[C@H](C(=O)N[C@@H](CC(C)C)C(=O)N[C@@H](CO)C(=O)N[C@@H](CC(C)C)C(=O)N[C@@H](CC(=O)O)C(=O)N[C@H](C(=O)N1CCC[C@H]1C(=O)N[C@H](C(=O)N[C@@H](CCCCN)C(=O)N[C@@H](CC(C)C)C(=O)N[C@@H](CCCCNC(=O)COCCOCCNC(=O)COCCOCCNC(=O)CC[C@H](NC(=O)CCCCCCCCCCCCCCCCC(=O)O)C(=O)O)C(=O)N[C@@H](CCC(N)=O)C(=O)N[C@H](C(=O)N[C@@H](CC(C)C)C(=O)N[C@@H](CC(C)C)C(=O)N[C@@H](CCCCN)C(=O)N[C@@H](CCC(N)=O)C(=O)N[C@@H](CCC(=O)O)C(=O)N[C@@H](CCCNC(=N)N)C(=O)N[C@@H](CCC(N)=O)C(=O)N[C@@H](CCCCN)C(=O)N[C@@H](CCCCN)C(=O)N[C@@H](CCC(N)=O)C(=O)N[C@@H](CCCNC(=N)N)C(=O)N[C@@H](CCC(=O)O)C(=O)N[C@@H](CCCCN)C(=O)N[C@@H](C)C(=O)N[C@@H](CCC(=O)O)C(=O)N[C@@H](CCCCN)C(=O)N[C@@H](CC(N)=O)C(=O)N[C@@H](CCCCN)C(=O)N[C@@H](CCC(N)=O)C(=O)N[C@H](C(=O)N[C@@H](CC(C)C)C(=O)N[C@@H](C)C(=O)N[C@@H](CCC(N)=O)C(=O)N[C@H](C(N)=O)C(C)C)[C@@H](C)CC)[C@@H](C)CC)[C@@H](C)CC)C(C)C)C(C)C
EC50 [nM] 0% HSA (cAMP, HTRF): > 100 nM
Emax (%) (100% = Sauvagine at 100 nM): -1.1%

B5: peptide of SEQ ID NO: 117 (peptide)
peptide: IVLSLDVPIKLK([AEEA-AEEA-γGlu-C18 diacid])QILLKQERQK[Aib]QRQQAEKNKQILAQV-NH2
modifications: N-terminus assumed
SMILES: CC[C@H](C)[C@H](N)C(=O)N[C@H](C(=O)N[C@@H](CC(C)C)C(=O)N[C@@H](CO)C(=O)N[C@@H](CC(C)C)C(=O)N[C@@H](CC(=O)O)C(=O)N[C@H](C(=O)N1CCC[C@H]1C(=O)N[C@H](C(=O)N[C@@H](CCCCN)C(=O)N[C@@H](CC(C)C)C(=O)N[C@@H](CCCCNC(=O)COCCOCCNC(=O)COCCOCCNC(=O)CC[C@H](NC(=O)CCCCCCCCCCCCCCCCC(=O)O)C(=O)O)C(=O)N[C@@H](CCC(N)=O)C(=O)N[C@H](C(=O)N[C@@H](CC(C)C)C(=O)N[C@@H](CC(C)C)C(=O)N[C@@H](CCCCN)C(=O)N[C@@H](CCC(N)=O)C(=O)N[C@@H](CCC(=O)O)C(=O)N[C@@H](CCCNC(=N)N)C(=O)N[C@@H](CCC(N)=O)C(=O)N[C@@H](CCCCN)C(=O)NC(C)(C)C(=O)N[C@@H](CCC(N)=O)C(=O)N[C@@H](CCCNC(=N)N)C(=O)N[C@@H](CCC(N)=O)C(=O)N[C@@H](CCC(N)=O)C(=O)N[C@@H](C)C(=O)N[C@@H](CCC(=O)O)C(=O)N[C@@H](CCCCN)C(=O)N[C@@H](CC(N)=O)C(=O)N[C@@H](CCCCN)C(=O)N[C@@H](CCC(N)=O)C(=O)N[C@H](C(=O)N[C@@H](CC(C)C)C(=O)N[C@@H](C)C(=O)N[C@@H](CCC(N)=O)C(=O)N[C@H](C(N)=O)C(C)C)[C@@H](C)CC)[C@@H](C)CC)[C@@H](C)CC)C(C)C)C(C)C
EC50 [nM] 0% HSA (cAMP, HTRF): > 100 nM
Emax (%) (100% = Sauvagine at 100 nM): -6%

B6: peptide of SEQ ID NO: 116 (peptide)
peptide: IVLSLDVPIKLK([AEEA-AEEA-γGlu-C18 diacid])QILLKQERQK[Aib]QREKAEKNKQILAQV-NH2
modifications: N-terminus assumed
SMILES: CC[C@H](C)[C@H](N)C(=O)N[C@H](C(=O)N[C@@H](CC(C)C)C(=O)N[C@@H](CO)C(=O)N[C@@H](CC(C)C)C(=O)N[C@@H](CC(=O)O)C(=O)N[C@H](C(=O)N1CCC[C@H]1C(=O)N[C@H](C(=O)N[C@@H](CCCCN)C(=O)N[C@@H](CC(C)C)C(=O)N[C@@H](CCCCNC(=O)COCCOCCNC(=O)COCCOCCNC(=O)CC[C@H](NC(=O)CCCCCCCCCCCCCCCCC(=O)O)C(=O)O)C(=O)N[C@@H](CCC(N)=O)C(=O)N[C@H](C(=O)N[C@@H](CC(C)C)C(=O)N[C@@H](CC(C)C)C(=O)N[C@@H](CCCCN)C(=O)N[C@@H](CCC(N)=O)C(=O)N[C@@H](CCC(=O)O)C(=O)N[C@@H](CCCNC(=N)N)C(=O)N[C@@H](CCC(N)=O)C(=O)N[C@@H](CCCCN)C(=O)NC(C)(C)C(=O)N[C@@H](CCC(N)=O)C(=O)N[C@@H](CCCNC(=N)N)C(=O)N[C@@H](CCC(=O)O)C(=O)N[C@@H](CCCCN)C(=O)N[C@@H](C)C(=O)N[C@@H](CCC(=O)O)C(=O)N[C@@H](CCCCN)C(=O)N[C@@H](CC(N)=O)C(=O)N[C@@H](CCCCN)C(=O)N[C@@H](CCC(N)=O)C(=O)N[C@H](C(=O)N[C@@H](CC(C)C)C(=O)N[C@@H](C)C(=O)N[C@@H](CCC(N)=O)C(=O)N[C@H](C(N)=O)C(C)C)[C@@H](C)CC)[C@@H](C)CC)[C@@H](C)CC)C(C)C)C(C)C
EC50 [nM] 0% HSA (cAMP, HTRF): > 100 nM
Emax (%) (100% = Sauvagine at 100 nM): 0.8%
